B1: "Na(+)/H(+) exchange regulatory cofactor NHE-RF1" (Homo sapiens), O14745 (parent)
chain: MSADAAAGAPLPRLCCLEKGPNGYGFHLHGEKGKLGQYIRLVEPGSPAEKAGLLAGDRLVEVNGENVEKETHQQVVSRIRAALNAVRLLVVDPETDEQLQKLGVQVREELLRAQEAPGQAEPPAAAEVQGAGNENEPREADKSHPEQRELRPRLCTMKKGPSGYGFNLHSDKSKPGQFIRSVDPDSPAEASGLRAQDRIVEVNGVCMEGKQHGDVVSAIRAGGDETKLLVVDRETDEFFKKCRVIPSQEHLNGPLPVPFTNGEIQKENSREALAEAALESPRPALVRSASSDTSEELNSQDSPPKQDSTAPSSTSSSDPILDFNISLAMAKERAHQKRSSKRAPQMDWSKKNELFSNL
partner: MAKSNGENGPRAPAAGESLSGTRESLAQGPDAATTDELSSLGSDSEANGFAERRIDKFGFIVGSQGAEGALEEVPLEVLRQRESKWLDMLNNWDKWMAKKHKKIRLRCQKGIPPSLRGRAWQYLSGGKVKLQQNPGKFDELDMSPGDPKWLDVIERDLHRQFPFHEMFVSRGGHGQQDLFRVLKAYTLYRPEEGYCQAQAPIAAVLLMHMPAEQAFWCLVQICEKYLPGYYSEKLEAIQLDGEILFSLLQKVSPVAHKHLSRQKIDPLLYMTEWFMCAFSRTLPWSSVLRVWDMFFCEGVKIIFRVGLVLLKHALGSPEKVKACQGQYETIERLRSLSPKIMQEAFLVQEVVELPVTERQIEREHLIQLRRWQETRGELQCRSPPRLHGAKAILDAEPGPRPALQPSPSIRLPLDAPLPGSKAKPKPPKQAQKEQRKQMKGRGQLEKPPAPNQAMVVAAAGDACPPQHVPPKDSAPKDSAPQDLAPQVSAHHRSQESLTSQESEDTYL
B2: "Na(+)/H(+) exchange regulatory cofactor NHE-RF1" (Homo sapiens), O14745 (parent)
chain: B1 chain

Variants of: B1
Conditions: with tb10a_human TBC1D10A

| Variant | effect of a mutation on the interaction |
| --- | --- |
| S162D;S339D;S340D | with no effect |
| S280A;S302A | with no effect |
| S280D;S302D | with no effect |
| S162A;S339A;S340A | with no effect |

Variants of: B2
Conditions: with ezri_human EZR

| Variant | effect of a mutation on the interaction |
| --- | --- |
| S280D;S302D | decreasing interaction strength |
| S162A;S339A;S340A | decreasing interaction strength |
| S280A;S302A | decreasing interaction strength |
| S162D;S339D;S340D | decreasing interaction strength |

Variants of: B2
Conditions: with ezri_human EZR
Remark: another data set of the same source

| Variant | effect of a mutation on the interaction |
| --- | --- |
| M346A;W348A | decreasing interaction strength |
| F355R | disrupting interaction strength |
| F355A | with no effect |

From IntAct's records for PubMed 20937695
